Measurements published in the Human Domainome abundance scans (Beltran et al. 2025).
± gives the uncertainty stated by the source.

B1: V(D)J recombination-activating protein 2, residues 415 to 491; numbered along this chain, P55895 (parent)
chain: YWITCCPTCDVDINTWVPFYSTELNKPAMIYCSHGDGHWVHAQCMDLAERTLIHLSAGSNKYYCNEHVEIARALHTP

Variants of: B1
Assay: abundance fitness (aPCA) (normalised: wild type 0, dead -1); higher = more abundant; growth selection in yeast, the domain comes from the species named
Conditions: Homo sapiens

Variant | abundance fitness
YWITCCPTCDVDINTWVPFYSTELNKPAMIYCSHGDGHWVHAQCMDLAERTLPHLSAGSNKYYCNEHVEIARALHTP | -0.163 ± 0.2
YWITCCPTCDVDINTWVPFYSTELNKPAMIYCSHGDGHEVHAQCMDLAERTLIHLSAGSNKYYCNEHVEIARALHTP | -0.148 ± 0.049
YWITCCPTCDVDINTWVPFYSTELNKPAMIYCSHGDGHMVHAQCMDLAERTLIHLSAGSNKYYCNEHVEIARALHTP | -0.072 ± 0.036
YWITCCPTCDVDINTWVPFYSTELNKPAMIYCSHGDGHSVHAQCMDLAERTLIHLSAGSNKYYCNEHVEIARALHTP | -0.209 ± 0.039
YWITCCPTCDVDINTWVPFYSTELNKPAMIYCSHGDGHRVHAQCMDLAERTLIHLSAGSNKYYCNEHVEIARALHTP | -0.185 ± 0.029
YWITCCPTCDVDINTWVPFGSTELNKPAMIYCSHGDGHWVHAQCMDLAERTLIHLSAGSNKYYCNEHVEIARALHTP | -0.28 ± 0.15
YWITCCPTCDVDINTWVPFMSTELNKPAMIYCSHGDGHWVHAQCMDLAERTLIHLSAGSNKYYCNEHVEIARALHTP | -0.383 ± 0.27
YWITCCPTCDVDINTWVNFYSTELNKPAMIYCSHGDGHWVHAQCMDLAERTLIHLSAGSNKYYCNEHVEIARALHTP | -0.453 ± 0.27
YWITCCPTCDVDINTWPPFYSTELNKPAMIYCSHGDGHWVHAQCMDLAERTLIHLSAGSNKYYCNEHVEIARALHTP | -0.375 ± 0.49
YWITCCPTCDVDINTWVPFYSPELNKPAMIYCSHGDGHWVHAQCMDLAERTLIHLSAGSNKYYCNEHVEIARALHTP | -0.281 ± 0.24
YWITCCPTCDVDINTWVPFYSWELNKPAMIYCSHGDGHWVHAQCMDLAERTLIHLSAGSNKYYCNEHVEIARALHTP | -0.121 ± 0.13
YWITCCPTCDVDINTWVPFYSTELNKPAMIYCSHGDGHWVHAQCMDLAERTLIHLSAGSNKYYCNEHVKIARALHTP | -0.183 ± 0.29
YHITCCPTCDVDINTWVPFYSTELNKPAMIYCSHGDGHWVHAQCMDLAERTLIHLSAGSNKYYCNEHVEIARALHTP | -0.11 ± 0.19
YWITCCPTCDVDLNTWVPFYSTELNKPAMIYCSHGDGHWVHAQCMDLAERTLIHLSAGSNKYYCNEHVEIARALHTP | -0.098 ± 0.14
YWITCCPTCDVDINTWVPFYSTELNKPAMIYCSHGDGHWVHAQCMDLAERTLIHLSAGSNKYYCNELVEIARALHTP | -0.741 ± 0.043
YWITCCPTCDVDINTWVPFYSTELNKPAMIYCSHGDGHWVHAQCMDLAERTLIHLWAGSNKYYCNEHVEIARALHTP | -0.07 ± 0.062
YWITCCPTCDVDINTWVPFYSTELNKPAMIYCSHGDGHWVHQQCMDLAERTLIHLSAGSNKYYCNEHVEIARALHTP | -0.605 ± 0.17
YWITCCPTCDVDINTWVPFYSTELNKPAMIYCSFGDGHWVHAQCMDLAERTLIHLSAGSNKYYCNEHVEIARALHTP | -0.301 ± 0.18

Variant | abundance fitness
YWITCCPTCDVDINTWVPFYSTELNKPAMIYCDHGDGHWVHAQCMDLAERTLIHLSAGSNKYYCNEHVEIARALHTP | 0.035 ± 0.078
YWITCCPRCDVDINTWVPFYSTELNKPAMIYCSHGDGHWVHAQCMDLAERTLIHLSAGSNKYYCNEHVEIARALHTP | -0.204 ± 0.2
YWITCCPYCDVDINTWVPFYSTELNKPAMIYCSHGDGHWVHAQCMDLAERTLIHLSAGSNKYYCNEHVEIARALHTP | -0.541 ± 0.45
YWITCCPTCDVDINTWVPFYSTELNKPAMIYCSHADGHWVHAQCMDLAERTLIHLSAGSNKYYCNEHVEIARALHTP | -0.164 ± 0.22
YWITCCPTCDVDINTWVPFYSTELNKPAMIYCSHSDGHWVHAQCMDLAERTLIHLSAGSNKYYCNEHVEIARALHTP | -0.136 ± 0.11
YWIQCCPTCDVDINTWVPFYSTELNKPAMIYCSHGDGHWVHAQCMDLAERTLIHLSAGSNKYYCNEHVEIARALHTP | -0.185 ± 0.077
YWIVCCPTCDVDINTWVPFYSTELNKPAMIYCSHGDGHWVHAQCMDLAERTLIHLSAGSNKYYCNEHVEIARALHTP | -0.128 ± 0.045
YWIDCCPTCDVDINTWVPFYSTELNKPAMIYCSHGDGHWVHAQCMDLAERTLIHLSAGSNKYYCNEHVEIARALHTP | -0.022 ± 0.12
YWITCCPTCDVDINTWVPFYSTELNKPAMIYCSHGDGHWVHAQCMDLAERTLIHLSAGSNKYYCNEHVEIARALHMP | -0.034 ± 0.089
YWITCCPTCDVDINTWVPFYSTELNKPAMIYCSHGDGHWVHAQCMDLAERTLIHLSAGSNKYYCNEHVEIARALHWP | -0.321 ± 0.11
YWITCCPTCDVDINTWVPFYSTELNKPAMIYCSHGDGHWVHAQCMDLAERTLIHLSAGSNKYYCNEHVEIARALHFP | -0.373 ± 0.17
YWITCCPTCDVDINTWVPFYSTELNKPAMIYCSHGDGHWVHAQCMDLAERTLIHLSAGSNKYYCNEHVEIARALHGP | -0.057 ± 0.056
YWITCCPTGDVDINTWVPFYSTELNKPAMIYCSHGDGHWVHAQCMDLAERTLIHLSAGSNKYYCNEHVEIARALHTP | -0.916 ± 0.5
YWITCCPTQDVDINTWVPFYSTELNKPAMIYCSHGDGHWVHAQCMDLAERTLIHLSAGSNKYYCNEHVEIARALHTP | -0.175 ± 0.3
YWITCCPTCDVDINTIVPFYSTELNKPAMIYCSHGDGHWVHAQCMDLAERTLIHLSAGSNKYYCNEHVEIARALHTP | -0.12 ± 0.26
YWITCCPTCDVDINTWVPFYSTELNKPAMIYCSHGDGHWVHAQCMDLAERTLIHLSAGSNKYMCNEHVEIARALHTP | -0.171 ± 0.096
YWITCCPTCDVDINTWVPFYSTELNKPAMIYCSHGDGHWVHAQCMDLAERTLIHLSAGSNKYSCNEHVEIARALHTP | -0.18 ± 0.095
